The text below walks through data of paper doi:10.1101/2020.12.31.425005 (bioRxiv, 2020).

The data set deals with the molecule itself. The data set can be described thus: crystal structure.

B1: Haemophilus ducreyi I51M-L72M-YhcB cytosolic region, residues 31-128 (domain or fragment)
chain: MKGNIQQQIQLKSELASAEAKMEEQKQQLERHFEQSANLLENMAEDYKKLYTHFAQNSEQLLPESNQVEFFKRLKNHANGDEDNQPRDYSDGSSGLLKS
modifications: selenomethionine-labeled (Met-51, Met-72)
For B1, the stoichiometry N – broadly, the number of molecules, sites or subunits per partner or assembly – stood at 4.
